According to PMC9901172:

Legend:
[1] = molecular target: Imp9•XFD488-H2A-H2B complex (human | frog) (UniProt Q96P70); assay: fluorescence polarisation
[2] = molecular target: Kap114•XFD488-H2A-H2B complex (yeast | frog) (UniProt P53067); assay: fluorescence polarisation

## yeast RanGTP (Saccharomyces cerevisiae Gsp1 residues 1-179 with Q71L) (from UniProt P32835 1-179) (domain or fragment)
[1]
  Kd: 150 nM
[2]
  Kd: 270 nM
